Results published in IntAct's records for PubMed 15207857.

B1: Glutamate receptor ionotropic, delta-2 (Mus musculus), Q61625 (parent)
chain: MEVFPLLLFLSFCWSRTWDLATADSIIHIGAIFDESAKKDDEVFRTAVGDLNQNEEILQTEKITFSVTFVDGNNPFQAVQEACELMNQGILALVSSIGCTSAGSLQSLADAMHIPHLFIQRSTAGTPRSGCGLTRSNRNDDYTLSVRPPVYLNEVILRVVTEYAWQKFIIFYDSEYDIRGIQEFLDKVSQQGMDVALQKVENNINKMITTLFDTMRIEELNRYRDTLRRAILVMNPATAKSFISEVVETNLVAFDCHWIIINEEINDVDVQELVRRSIGRLTIIRQTFPVPQNISQRCFRGNHRISSSLCDPKDPFAQNMEISNLYIYDTVLLLANAFHKKLEDRKWHSMASLSCIRKNSKPWQGGRSMLETIKKGGVNGLTGDLEFGENGGNPNVHFEILGTNYGEELGRGVRKLGCWNPVTGLNGSLTDKKLENNMRGVVLRVVTVLEEPFVMVSENVLGKPKKYQGFSIDVLDALSNYLGFNYEIYVAPDHKYGSPQEDGTWNGLVGELVFKRADIGISALTITPDRENVVDFTTRYMDYSVGVLLRRAEKTVDMFACLAPFDLSLWACIAGTVLLVGLLVYLLNWLNPPRLQMGSMTSTTLYNSMWFVYGSFVQQGGEVPYTTLATRMMMGAWWLFALIVISSYTANLAAFLTITRIESSIQSLQDLSKQTDIPYGTVLDSAVYQHVRMKGLNPFERDSMYSQMWRMINRSNGSENNVLESQAGIQKVKYGNYAFVWDAAVLEYVAINDPDCSFYTVGNTVADRGYGIALQHGSPYRDVFSQRILELQQSGDMDILKHKWWPKNGQCDLYSSVDAKQKGGALDIKSLAGVFCILAAGIVLSCLIAVLETWWSRRKGSRVPSKEDDKEIDLEHLHRRVNSLCTDDDSPHKQFSTSSIDLTPLDIDTLPTRQALEQISDFRNTHITTTTFIPEQIQTLSRTLSAKAASGFAFGSVPEHRTGPFRHRAPNGGFFRSPIKTMSSIPYQPTPTLGLNLGNDPDRGTSI
B2: Glutamate receptor ionotropic, delta-2 (Mus musculus), Q61625 (parent)
chain: B1 chain
partner: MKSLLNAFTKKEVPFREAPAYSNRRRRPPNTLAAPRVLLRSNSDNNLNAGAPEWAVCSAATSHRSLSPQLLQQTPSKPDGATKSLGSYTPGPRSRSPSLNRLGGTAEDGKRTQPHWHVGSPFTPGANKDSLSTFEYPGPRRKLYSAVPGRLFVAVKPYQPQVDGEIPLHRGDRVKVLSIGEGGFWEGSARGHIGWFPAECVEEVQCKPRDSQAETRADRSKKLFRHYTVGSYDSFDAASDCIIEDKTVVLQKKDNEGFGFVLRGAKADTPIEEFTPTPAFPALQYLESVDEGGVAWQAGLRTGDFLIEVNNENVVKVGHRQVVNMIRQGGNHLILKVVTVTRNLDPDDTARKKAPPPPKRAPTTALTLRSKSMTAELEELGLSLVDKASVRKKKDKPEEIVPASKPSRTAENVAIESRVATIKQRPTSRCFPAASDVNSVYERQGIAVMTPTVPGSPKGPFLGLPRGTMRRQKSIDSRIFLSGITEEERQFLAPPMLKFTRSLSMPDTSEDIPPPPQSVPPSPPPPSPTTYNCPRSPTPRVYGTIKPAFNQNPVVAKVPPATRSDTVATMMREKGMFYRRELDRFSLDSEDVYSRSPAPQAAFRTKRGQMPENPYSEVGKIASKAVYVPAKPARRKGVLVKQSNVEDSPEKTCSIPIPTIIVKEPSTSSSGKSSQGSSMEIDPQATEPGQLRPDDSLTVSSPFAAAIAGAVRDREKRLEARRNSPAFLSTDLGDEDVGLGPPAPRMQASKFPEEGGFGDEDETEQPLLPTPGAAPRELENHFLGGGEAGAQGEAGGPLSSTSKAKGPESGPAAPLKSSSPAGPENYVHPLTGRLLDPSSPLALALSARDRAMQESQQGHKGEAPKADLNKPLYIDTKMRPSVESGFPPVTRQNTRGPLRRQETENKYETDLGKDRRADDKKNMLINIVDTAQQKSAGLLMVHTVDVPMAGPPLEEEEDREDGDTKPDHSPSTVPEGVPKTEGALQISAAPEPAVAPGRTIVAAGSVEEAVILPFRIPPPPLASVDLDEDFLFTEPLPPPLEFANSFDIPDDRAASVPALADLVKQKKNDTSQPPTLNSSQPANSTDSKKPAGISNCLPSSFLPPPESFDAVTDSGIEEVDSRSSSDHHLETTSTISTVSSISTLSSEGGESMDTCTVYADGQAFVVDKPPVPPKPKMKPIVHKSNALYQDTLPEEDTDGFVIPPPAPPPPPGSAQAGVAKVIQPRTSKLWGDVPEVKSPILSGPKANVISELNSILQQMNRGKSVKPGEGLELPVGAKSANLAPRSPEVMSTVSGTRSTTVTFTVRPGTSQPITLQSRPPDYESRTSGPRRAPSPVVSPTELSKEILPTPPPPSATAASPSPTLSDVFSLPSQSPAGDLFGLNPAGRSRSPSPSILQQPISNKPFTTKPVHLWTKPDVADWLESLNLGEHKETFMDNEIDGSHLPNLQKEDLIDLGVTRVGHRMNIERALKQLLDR

Variants of: B1
Conditions: with shan1_rat Shank1, Q9WV48
Sequence of shan1_rat Shank1, Q9WV48 (Q9WV48 whole entry): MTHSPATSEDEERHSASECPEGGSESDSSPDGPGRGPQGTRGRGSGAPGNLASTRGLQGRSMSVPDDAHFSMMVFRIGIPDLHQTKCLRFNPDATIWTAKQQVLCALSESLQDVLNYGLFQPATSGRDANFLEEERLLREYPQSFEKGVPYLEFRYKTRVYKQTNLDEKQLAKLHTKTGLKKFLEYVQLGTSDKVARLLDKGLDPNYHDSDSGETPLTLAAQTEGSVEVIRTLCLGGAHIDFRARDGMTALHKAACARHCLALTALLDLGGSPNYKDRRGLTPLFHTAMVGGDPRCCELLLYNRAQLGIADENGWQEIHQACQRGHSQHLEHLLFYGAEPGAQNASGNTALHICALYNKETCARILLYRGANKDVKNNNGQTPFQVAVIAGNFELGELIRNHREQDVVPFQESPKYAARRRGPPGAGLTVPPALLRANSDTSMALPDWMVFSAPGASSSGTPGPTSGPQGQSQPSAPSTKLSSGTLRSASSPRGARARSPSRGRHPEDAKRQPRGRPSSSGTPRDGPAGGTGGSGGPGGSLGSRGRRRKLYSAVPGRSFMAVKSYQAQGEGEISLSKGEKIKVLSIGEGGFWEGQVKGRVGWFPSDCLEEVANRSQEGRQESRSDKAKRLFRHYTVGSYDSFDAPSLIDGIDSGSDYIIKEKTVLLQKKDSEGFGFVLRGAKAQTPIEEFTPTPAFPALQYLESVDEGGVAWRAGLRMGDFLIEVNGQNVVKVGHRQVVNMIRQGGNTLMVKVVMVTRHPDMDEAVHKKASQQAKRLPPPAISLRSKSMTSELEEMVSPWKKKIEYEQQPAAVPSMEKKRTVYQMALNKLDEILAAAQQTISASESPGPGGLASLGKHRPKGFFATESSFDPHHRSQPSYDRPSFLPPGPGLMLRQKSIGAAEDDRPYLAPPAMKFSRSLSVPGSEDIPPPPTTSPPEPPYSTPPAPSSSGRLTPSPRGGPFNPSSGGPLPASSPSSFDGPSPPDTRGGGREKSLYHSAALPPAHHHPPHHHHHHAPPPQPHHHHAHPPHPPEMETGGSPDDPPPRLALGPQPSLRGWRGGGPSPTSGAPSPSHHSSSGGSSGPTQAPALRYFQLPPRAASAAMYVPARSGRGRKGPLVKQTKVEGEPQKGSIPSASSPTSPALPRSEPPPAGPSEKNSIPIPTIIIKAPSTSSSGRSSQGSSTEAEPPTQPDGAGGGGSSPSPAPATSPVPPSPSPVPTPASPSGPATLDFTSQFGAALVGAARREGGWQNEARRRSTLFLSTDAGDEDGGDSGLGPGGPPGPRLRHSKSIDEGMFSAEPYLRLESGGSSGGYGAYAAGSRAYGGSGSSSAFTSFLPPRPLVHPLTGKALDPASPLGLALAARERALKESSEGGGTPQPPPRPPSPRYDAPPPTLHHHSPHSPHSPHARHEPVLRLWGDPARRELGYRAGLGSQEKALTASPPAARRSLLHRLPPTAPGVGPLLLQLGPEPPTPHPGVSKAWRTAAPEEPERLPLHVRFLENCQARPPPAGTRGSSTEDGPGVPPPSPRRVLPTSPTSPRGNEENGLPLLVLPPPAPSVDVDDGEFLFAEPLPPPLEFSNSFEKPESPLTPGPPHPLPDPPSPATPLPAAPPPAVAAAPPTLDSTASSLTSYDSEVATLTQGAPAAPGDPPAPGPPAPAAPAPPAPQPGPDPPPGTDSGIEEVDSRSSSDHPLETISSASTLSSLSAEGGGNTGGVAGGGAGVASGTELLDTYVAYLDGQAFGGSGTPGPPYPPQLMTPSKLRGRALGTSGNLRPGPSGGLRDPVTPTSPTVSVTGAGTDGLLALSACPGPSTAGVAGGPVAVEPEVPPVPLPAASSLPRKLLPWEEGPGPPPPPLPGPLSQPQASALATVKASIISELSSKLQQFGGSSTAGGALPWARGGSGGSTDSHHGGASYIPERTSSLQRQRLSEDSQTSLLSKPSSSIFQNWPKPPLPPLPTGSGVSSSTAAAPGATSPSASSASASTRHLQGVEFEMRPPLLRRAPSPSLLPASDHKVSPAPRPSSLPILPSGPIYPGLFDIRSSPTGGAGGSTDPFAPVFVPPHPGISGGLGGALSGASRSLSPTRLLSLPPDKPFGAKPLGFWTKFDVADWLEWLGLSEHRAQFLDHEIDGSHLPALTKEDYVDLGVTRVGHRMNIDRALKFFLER

effect of a mutation on the interaction	Variant
decreasing interaction	T930A
disrupting interaction	S920A
disrupting interaction	T930A;F932A

Variants of: B2
Conditions: with shan2_mouse Shank2, Q80Z38

effect of a mutation on the interaction	Variant
decreasing interaction	T930A
disrupting interaction	S920A
decreasing interaction	T930A;F932A

Variants of: B2
Conditions: with shan2_mouse Shank2, Q80Z38
Remark: another data set of the same source

effect of a mutation on the interaction	Variant
disrupting interaction	S920A;T930A;F932A
